Measurements from publication PMC9259484 (Nature, 2022).

B1: C118 (antibody, V domains shown)
VH: QVQLVESGGGVVQPGRSLRLSCAASGFTFSNYAMHWVRQAPGKGLEWVAVISYDGSNKYYADSVKGRFTISRDNSKNTLYLQMNSLRAEDTAIYYCASGYTGYDYFVRGDYYGLDVWGQGTTVTVSS
VL: QPVLTQSPSASASLGASVKLTCTLSSGHSSYAIAWHQQQPEKGPRYLMKLNTDGSHSKGDGIPDRFSGSSSGAERYLTISSLQSEDEADYYCQTWGTGILVFGGGTKLTVL
B2: C105 (antibody, V domains shown)
VH: QVQLVESGGGLIQPGGSLRLSCAASGFTVSSNYMSWVRQAPGKGLEWVSVIYSGGSTYYADSVKGRFTISRDNSKNTLYLQMNSLRAEDTAVYYCARGEGWELPYDYWGQGTLVTVSS
VL: QSALTQPPSASGSPGQSVTISCTGTSSDVGGYKYVSWYQQHPGKAPKLMIYEVSKRPSGVPDRFSGSKSGNTASLTVSGLQAEDEADYYCSSYEGSNNFVVFGGGTKLTVL

Target: SARS-CoV-2 Wuhan-Hu-1 receptor binding domain (RBD), Spike (S) protein residues 319-539 (SARS-CoV-2, UniProt P0DTC2)
Assay: BLI
Details: both partners purified

| Binder | binding result |
| --- | --- |
| B1 | binds |
| B2 | binds |
